Values quoted from earlier work in patent US6329011A, “Antimicrobial agent against acid-resistant and heat-resistant bacteria” (Director General of Shikoku National Agricultural …, priority 2000, dated 2001).

Assays:
[1] = heated under acidic conditions at 100° C. for 10 min.
guinea pigs = conditions: one oral administration, 103 to 229 mg/kg body weight, observation for 7 days

For thionin, which “degradation by digestive enzymes such as trypsin” value (trypsin) is on record?
Its value is “degraded rapidly”.

What about the “antimicrobial activity after heating” value [1] of the same substance?
The value was “does not lose antimicrobial activity”.

And the “abnormalities after oral administration” value (guinea pigs)?
Its value is “did not result in detection of any abnormalities”.
